The chains are these.
B1: anti-MUC17×CD3 BsAb CM5 (bispecific antibody, human IgG1, kappa)
heavy: not shown
light: QAVVTQEPSLTVSPGGTVTLTCRSSTGAVTTSNYANWVQQKPGQAPRGLIGGTNKRAPGVPARFSGSLLGGKAALTLSGAQPEDEAEYYCALWYSNLWVFGQGTKVEIKRTVAAPSVFIFPPSDEQLKSGTASVVCLLNNFYPREAKVQWKVDNALQSGNSQESVTEQDSKDSTYSLSSTLTLSKADYEKHKVYACEVTHQGLSSPVTKSFNRGEC
B2: anti-MUC17×CD3 BsAb CM8 (bispecific antibody, human IgG1, kappa)
heavy: not shown
light: B1 light
B3: anti-MUC17×CD3 BsAb CM6 (bispecific antibody, human IgG1, kappa)
heavy: not shown
light: B1 light
B4: anti-MUC17×CD3 BsAb CM7 (bispecific antibody, human IgG1, kappa)
heavy: not shown
light: B1 light
B5: 27A3人源化抗体(hu-27A3) (antibody, human IgG1, kappa, V domains shown)
VH: QVQLVQSGAEVKKPGASVKVSCKASGYSFTIYWMHWVRQAPGQGLEWIGMSHPSDSESRLNQKFKDRATLTVDKSTSTAYMELSSLRSEDTAVYYCSRPYYGSSAWFADWGQGTLVTVSA
VL: DIVMTQSPDSLAVSLGERATINCKSSQSLLNSSNQKNYLAWYQQKPGQSPKLLIYFASTRESGVPDRFSGSGSGTDFTLTISSLQAEDVAVYYCQQHYSFPLTFGAGTKLELRR
notes: Humanized anti-MUC17 IgG1/kappa, made in HEK-293E; also called 抗MUC17的人源化单克隆抗体
B6: 人源化抗CD3抗体huSP34 (antibody, human IgG1, kappa, V domains shown)
VH: EVQLVESGGGLVQPGGSLRLSCAASGFTFNTYAMNWVRQAPGKGLEWVARIRSKYNNYATYYADSVKDRFTISRDDSKNTLYLQMNSLRAEDTAVYYCVRHGNFGNSYVSWFAYWGQGTLVTVSS
VL: QAVVTQEPSLTVSPGGTVTLTCRSSTGAVTTSNYANWVQQKPGQAPRGLIGGTNKRAPGVPARFSGSLLGGKAALTLSGAQPEDEAEYYCALWYSNLWVFGQGTKVEIKR
notes: Humanized SP34, IgG1/kappa; positive control for the CD3 arm

Where “and” joins values, the source holds several entries; their conditions need not be identical. Equal entries are not always repeated.

For one test, the target named is T1, MUC17 on LS174T cells (human, UniProt Q685J3 26-4493). Description: flow cytometry on LS174T cells, PE goat anti-human Fc. For orientation: In flow cytometry, cells or beads pass a laser one at a time.
For the molecule B1, the binding result is “binds”.

For B2, the binding result is “binds”.

For B3, the binding result is listed as “binds”.

The target of another test is T1, MUC17 on LS174T cells. Description: cell-based or functional assay.
Regarding B4, the “IC 50 (CD3+T细胞杀伤LS174T细胞, CellTiter-Glo)” value is 0.28 nM.

The next test has as its target T2, MUC17-ECD-His蛋白 (human, UniProt Q685J3 26-4393).
T2 construct: extracellular domain; Made in HEK-293E; the signal peptide added at the N-terminus is not part of the purified protein; also called MUC17抗原
Briefly: ELISA, MUC17-ECD-His coated at 500 ng/mL, HRP goat anti-human Fc.
Regarding B5, the EC 50 stood at 0.0893 nM.

The next test has as its target CD3 (CD3-TCR complex) on Promega PD1 effector cells (Jurkat T cells) (human). Description: cell-based or functional assay.
Consider B1, for which the “EC 50” value came out at 0.646 nM and the Top worked out at 42300.

For the molecule B2, the “EC 50” value amounted to 1.17 nM and the Top was 76700.

B4: the “EC 50” value came to 1.41 nM and the Top amounted to 80500.

Turning to B3, the “EC 50” value was 1.11 nM and the Top stood at 45800.

In the case of B6, the “EC 50” value was 0.73 nM and 0.624 nM.

The target of the next test is T3, Human CD3 epsilon&CD3 delta Heterodimer Protein (human, UniProt P07766 23-126; P04234 22-105).
T3 construct: Bought heterodimer; also called Human CD3 epsilon&CD3 delta Heterodimer蛋白; CD3抗原
T3 sequence (P07766 23-126, stated change not applied, chain 1 of 2): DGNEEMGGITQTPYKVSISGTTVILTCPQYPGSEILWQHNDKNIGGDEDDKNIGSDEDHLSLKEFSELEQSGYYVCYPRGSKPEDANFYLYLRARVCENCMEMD
T3 sequence (P04234 22-105, stated change not applied, chain 2 of 2): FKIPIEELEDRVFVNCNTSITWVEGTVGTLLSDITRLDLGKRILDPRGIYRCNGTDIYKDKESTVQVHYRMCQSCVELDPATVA
Briefly: ELISA, CD3 epsilon/delta heterodimer coated at 50 ng/mL, HRP goat anti-human Fc. (ELISA stands for enzyme-linked immunosorbent assay.)
As to B1, the binding result is listed as “binds”.

As for B2, the binding result is “binds”.

In the case of B4, the binding result is listed as “binds”.

Regarding B3, the binding result was “binds”.

As for B6, the binding result is listed as “binds”.

The values above are taken from patent CN116284427A (SUNSHINE GUOJIAN PHARMACEUTICAL SHANGHAI CO LTD, dated 2023).
